Data published in publication PMC9631991 (Biochemistry, 2022).

Experiments:
[1] = target: LC3B-115 (residues 1-115) (human, UniProt Q9GZQ8 1-115); assay: ITC; 25 °C; 20 mM HEPES pH 7.5, 200 mM NaCl, 0.5 mM TCEP; 10~68 uM LC3B proteins in the cell, 10-fold higher concentration of ATG4b in the syringe; single-site binding model; details: both partners purified
LC3B-I (residues 1-120) = LC3B-I (residues 1-120) (human, UniProt Q9GZQ8 1-120); assay: as above; details: both partners purified
[2] = target: pro-LC3B (residues 1-125) (human, UniProt Q9GZQ8 1-120); assay: cell-based or functional assay

stoichiometry N [1]	Kd (LC3B-I (residues 1-120))	stoichiometry N (LC3B-I (residues 1-120))	fold decrease in KM of cleavage of the FRET substrate CFP-proLC3B-YFP, further fold against ATG4b-382 [2]	Binder
0.9 ± 0.2	4.7 µM	0.9 ± 0.2	–	ATG4b WT (full-length ATG4b) (enzyme) MDAATLTYDTLRFAEFEDFPETSEPVWILGRKYSIFTEKDEILSDVASRLWFTYRKNFPAIGGTGPTSDTGWGCMLRCGQMIFAQALVCRHLGRDWRWTQRKRQPDSYFSVLNAFIDRKDSYYSIHQIAQMGVGEGKSIGQWYGPNTVAQVLKKLAVFDTWSSLAVHIAMDNTVVMEEIRRLCRTSVPCAGATAFPADSDRHCNGFPAGAEVTNRPSPWRPLVLLIPLRLGLTDINEAYVETLKHCFMMPQSLGVIGGKPNSAHYFIGYVGEELIYLDPHTTQPAVEPTDGCFIPDESFHCQHPPCRMSIAELDPSIAVGFFCKTEDDFNDWCQQVKKLSLLGGALPMFELVELQPSHLACPDVLNLSLDSSDVERLERFFDSEDEDFEILSL
–	–	–	2.6 fold	ATG4b-366 (domain or fragment) MDAATLTYDTLRFAEFEDFPETSEPVWILGRKYSIFTEKDEILSDVASRLWFTYRKNFPAIGGTGPTSDTGWGCMLRCGQMIFAQALVCRHLGRDWRWTQRKRQPDSYFSVLNAFIDRKDSYYSIHQIAQMGVGEGKSIGQWYGPNTVAQVLKKLAVFDTWSSLAVHIAMDNTVVMEEIRRLCRTSVPCAGATAFPADSDRHCNGFPAGAEVTNRPSPWRPLVLLIPLRLGLTDINEAYVETLKHCFMMPQSLGVIGGKPNSAHYFIGYVGEELIYLDPHTTQPAVEPTDGCFIPDESFHCQHPPCRMSIAELDPSIAVGFFCKTEDDFNDWCQQVKKLSLLGGALPMFELVELQPSHLACPDVLN
